Test results reported in publication PMC9991925 (2022).
One block for each binder: values may come before it.

Legend:
[1] = target: recombinant mouse TfR (mouse, UniProt Q62351 1-763); test: ELISA
[2] = target: Fc(aMD4)T2 (human, UniProt P01857 104-330 = IgG part); test: SPR
[3] = target: Fc(aMD4ds)B3 (human, UniProt P01857 104-330 = IgG part); test: SPR
[4] = target: Fc(aMD4)B3 (human, UniProt P01857 104-330 = IgG part); test: SPR
[5] = target: Fc(aMD4)T3; test: SPR
[6] = target: Fc(aMD4)T1 (human, UniProt P01857 104-330 = IgG part); test: SPR
[7] = target: Fc(aMD4)M2 (human, UniProt P01857 104-330 = IgG part); test: SPR
[8] = target: Fc(aMD4ds)T1 (human, UniProt P01857 104-330 = IgG part); test: SPR
[9] = target: Fc(aMD4)B2 (human, UniProt P01857 104-330 = IgG part); test: SPR
[10] = target: Fc(aMD4)B1 (human, UniProt P01857 104-330 = IgG part); test: SPR

Chain of recombinant mouse TfR (Q62351 89-763): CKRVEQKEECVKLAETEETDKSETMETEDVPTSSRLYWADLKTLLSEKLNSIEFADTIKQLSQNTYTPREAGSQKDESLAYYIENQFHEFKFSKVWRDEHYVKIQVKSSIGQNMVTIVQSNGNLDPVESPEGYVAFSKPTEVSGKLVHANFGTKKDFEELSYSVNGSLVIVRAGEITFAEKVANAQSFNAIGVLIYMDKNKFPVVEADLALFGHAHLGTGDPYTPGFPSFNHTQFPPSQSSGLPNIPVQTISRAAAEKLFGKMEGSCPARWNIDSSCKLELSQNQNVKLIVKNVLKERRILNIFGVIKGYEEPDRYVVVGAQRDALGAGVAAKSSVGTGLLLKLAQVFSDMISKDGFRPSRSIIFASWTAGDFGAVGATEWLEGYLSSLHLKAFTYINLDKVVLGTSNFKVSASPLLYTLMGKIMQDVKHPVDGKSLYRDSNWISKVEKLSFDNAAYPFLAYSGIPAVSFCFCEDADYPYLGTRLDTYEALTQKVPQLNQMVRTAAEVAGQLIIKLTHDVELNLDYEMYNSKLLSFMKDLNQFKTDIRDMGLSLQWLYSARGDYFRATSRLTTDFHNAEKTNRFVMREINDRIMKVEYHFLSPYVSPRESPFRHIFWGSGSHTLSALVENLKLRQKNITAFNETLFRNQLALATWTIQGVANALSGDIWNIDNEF

Kd [1]: 30.8 nM
B1: sTfR(aMD4) (antibody, V domains shown)
VH: EVQLVESGGGLVQPGNSLTLSCVASGFTFSNYGMHWIRQAPKKGLEWIAMIYYDSSKMNYADTVKGRFTISRDNSKNTLYLEMNSLRSEDTAMYYCAVPTSHYVVDVWGQGVSVTVSS
VL: DIQMTQSPASLSASLEEIVTITCQASQDIGNWLAWYQQKPGKSPQLLIYGATSLADGVPSRFSGSRSGTQFSLKISRVQVEDIGIYYCLQAYNTPWTFGGGTKLELK

Kd [1]: 0.36 nM
B2: dTfR(aMD4) (antibody, V domains shown)
VH: B1 VH
VL: B1 VL

Kd [2]: 401 nM
Kd [3]: 3.7 nM
Kd [4]: 4 nM
Kd [5]: 652 nM
Kd [6]: 75.8 nM
Kd [7]: 18.9 nM
Kd [8]: 73.4 nM
Kd [9]: 79.1 nM
Kd [10]: 10.8 nM
B3: ectodomain fragment of human Met (MetECD, 1-931), biotinylated (domain or fragment)
chain: ECKEALAKSEMNVNMKYQLPNFTAETPIQNVILHEHHIFLGATNYIYVLNEEDLQKVAEYKTGPVLEHPDCFPCQDCSSKANLSGGVWKDNINMALVVDTYYDDQLISCGSVNRGTCQRHVFPHNHTADIQSEVHCIFSPQIEEPSQCPDCVVSALGAKVLSSVKDRFINFFVGNTINSSYFPDHPLHSISVRRLKETKDGFMFLTDQSYIDVLPEFRDSYPIKYVHAFESNNFIYFLTVQRETLDAQTFHTRIIRFCSINSGLHSYMEMPLECILTEKRKKRSTKKEVFNILQAAYVSKPGAQLARQIGASLNDDILFGVFAQSKPDSAEPMDRSAMCAFPIKYVNDFFNKIVNKNNVRCLQHFYGPNHEHCFNRTLLRNSSGCEARRDEYRTEFTTALQRVDLFMGQFSEVLLTSISTFIKGDLTIANLGTSEGRFMQVVVSRSGPSTPHVNFLLDSHPVSPEVIVEHTLNQNGYTLVITGKKITKIPLNGLGCRHFQSCSQCLSAPPFVQCGWCHDKCVRSEECLSGTWTQQICLPAIYKVFPNSAPLEGGTRLTICGWDFGFRRNNKFDLKKTRVLLGNESCTLTLSESTMNTLKCTVGPAMNKHFNMSIIISNGHGTTQYSTFSYVDPVITSISPKYGPMAGGTLLTLTGNYLNSGNSRHISIGGKTCTLKSVSNSILECYTPAQTISTEFAVKLKIDLANRETSIFSYREDPIVYEIHPTKSFISGGSTITGVGKNLNSVSVPRMVINVHEAGRNFTVACQHRSNSEIICCTTPSLQQLNLQLPLKTKAFFMLDGILSKYFDLIYVHNPVFKPFEKPVMISMGNENVLEIKGNDIDPEAVKGEVLKVGNKSCENIHLHSEAVLCTVPNDLLKLNSELNIEWKQAISSTVLGKVIVQPDQNF
modifications: biotin on the biotin acceptor sequence (BirA-mediated)
